Source: US5541071 (New England Medical Center Hospitals, Inc., dated 1996)
Square brackets hold non-standard residues; d marks the D form. Ends that are not written are not given here. sY = N[C@@H](Cc1ccc(OS(=O)(=O)O)cc1)C(=O)O

T1: canine parietal cell gastrin receptor (recombinant, expressed from clone GR-1 in COS-7 cells) (canine)
T1 chain: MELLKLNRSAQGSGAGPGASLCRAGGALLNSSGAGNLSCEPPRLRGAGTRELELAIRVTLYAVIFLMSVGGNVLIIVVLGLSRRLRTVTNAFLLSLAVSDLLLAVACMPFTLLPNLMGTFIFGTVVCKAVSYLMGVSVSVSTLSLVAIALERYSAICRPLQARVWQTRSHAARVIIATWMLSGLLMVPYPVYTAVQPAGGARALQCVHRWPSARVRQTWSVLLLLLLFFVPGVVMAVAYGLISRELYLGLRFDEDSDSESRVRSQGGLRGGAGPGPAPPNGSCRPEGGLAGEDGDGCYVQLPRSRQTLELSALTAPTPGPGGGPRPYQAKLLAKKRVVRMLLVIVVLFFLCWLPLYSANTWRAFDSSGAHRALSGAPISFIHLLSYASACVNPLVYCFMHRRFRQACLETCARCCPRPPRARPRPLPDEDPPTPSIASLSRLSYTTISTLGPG


Key:
[1] = molecular target: canine parietal cell gastrin receptor (recombinant, expressed from clone GR-1 in COS-7 cells) (canine)
[2] = molecular target: canine parietal cell gastrin receptor (recombinant, expressed from clone GR-1 in COS-7 cells) (canine); remark: listed apart in the source
[3] = molecular target: T1, canine parietal cell gastrin receptor …; test: competition with 40 pM 125I-CCK-8 on intact GR-1 transfected COS-7 cells
Description: (§1) COS-7 cells (1.5 ×10^6) were plated in 10 cm culture dishes (Nunc) and grown in DMEM/10% fetal calf serum, 5% CO_2 at 37° C. […] Twenty-four hours following transfection, cells were split into 24-well dishes (Nunc), 5000 cells/well. […] Equilibrium binding occurred after incubation for 80 min at 37° C. Cell monolayers were subsequently washed three times and bound radioactivity was quantified after cell hydrolysis in 1N NaOH.

[4] = molecular target: T1, canine parietal cell gastrin receptor …; test: competition with 125I-CCK-8 on isolated membranes of GR-1 transfected COS-7 cells, filtration
Description: Binding parameters were also measured in isolated plasma membranes from COS-7 cells transfected with GR-1. Binding was performed for 60 min at 22° C.

[5] = molecular target: T1, canine parietal cell gastrin receptor …; test: radioligand saturation binding, 2.5 to 1,000 pM 125I-CCK-8, GR-1 transfected COS-7 cells
Description: as §1

Binder	free cytosolic calcium, [Ca2+] (fura-2 fluorescence) [1]	phosphoinositide metabolites (Ins-1,4,5-P3, Ins-1,3,4,5-P4) by HPLC (% over control) [2]	IC50 [3]	IC50 [4]	Kd [5]
DYMGWMDF (ends and bridges not checked; also: 125I label, site not given here) [125I-CCK-8]	–	–	–	–	0.08 nM
DYMGWMDF-NH2 [CCK-8-desulfate]	–	–	–	1.5 nM	–

Results, then the binder that gave them:

free cytosolic calcium, [Ca2+] (fura-2 fluorescence) [1]	phosphoinositide metabolites (Ins-1,4,5-P3, Ins-1,3,4,5-P4) by HPLC (% over control) [2]	IC50 [3]	IC50 [4]	Kd [5]	Binder
142 nM	741	0.26 nM	0.4 nM	–	QGPWLEEEEEAYGWMDF-NH2 (ends and bridges not checked) [gastrin I]
–	–	0.09 nM	0.08 nM	–	D[sY]MGWMDF-NH2 [CCK-8 (unlabeled)]
